B1: E3 ubiquitin-protein ligase COP1 (Arabidopsis thaliana (Mouse-ear cress)), P43254 (parent)
chain: MEEISTDPVVPAVKPDPRTSSVGEGANRHENDDGGSGGSEIGAPDLDKDLLCPICMQIIKDAFLTACGHSFCYMCIITHLRNKSDCPCCSQHLTNNQLYPNFLLDKLLKKTSARHVSKTASPLDQFREALQRGCDVSIKEVDNLLTLLAERKRKMEQEEAERNMQILLDFLHCLRKQKVDELNEVQTDLQYIKEDINAVERHRIDLYRARDRYSVKLRMLGDDPSTRNAWPHEKNQIGFNSNSLSIRGGNFVGNYQNKKVEGKAQGSSHGLPKKDALSGSDSQSLNQSTVSMARKKRIHAQFNDLQECYLQKRRQLADQPNSKQENDKSVVRREGYSNGLADFQSVLTTFTRYSRLRVIAEIRHGDIFHSANIVSSIEFDRDDELFATAGVSRCIKVFDFSSVVNEPADMQCPIVEMSTRSKLSCLSWNKHEKNHIASSDYEGIVTVWDVTTRQSLMEYEEHEKRAWSVDFSRTEPSMLVSGSDDCKVKVWCTRQEASVINIDMKANICCVKYNPGSSNYIAVGSADHHIHYYDLRNISQPLHVFSGHKKAVSYVKFLSNNELASASTDSTLRLWDVKDNLPVRTFRGHTNEKNFVGLTVNSEYLACGSETNEVYVYHKEITRPVTSHRFGSPDMDDAEEEAGSYFISAVCWKSDSPTMLTANSQGTIKVLVLAA
partner: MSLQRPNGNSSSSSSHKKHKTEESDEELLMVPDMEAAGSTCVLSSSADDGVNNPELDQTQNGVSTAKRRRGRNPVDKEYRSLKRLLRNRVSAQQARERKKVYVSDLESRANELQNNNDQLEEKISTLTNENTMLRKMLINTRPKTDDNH
B2: Transcription factor HY5-like (Arabidopsis thaliana (Mouse-ear cress)), Q8W191-1 (parent)
chain: B1 partner
partner: B1 chain

Variants of: B1
Settings: with HYH, Q8W191-1
W467A was tested, and the “effect of a mutation on the interaction” value was “decreasing interaction”.
With R465E the “effect of a mutation on the interaction” value was “decreasing interaction”.
In the case of G524E, the “effect of a mutation on the interaction” value is reported as “decreasing interaction”.
With K422E the “effect of a mutation on the interaction” value was “decreasing interaction”.
For K550E, the “effect of a mutation on the interaction” value was “decreasing interaction”.

Variants of: B2
Settings: with cop1_arath COP1, P43254
For V31A;P32A, the “effect of a mutation on the interaction” value was “decreasing interaction”.

Source: IntAct's records for PubMed 12023303
